Experimental data from paper doi:10.1101/646075 (bioRxiv, 2019).
Where two headings read alike, the source gives them in different places. Each block holds one molecule with its values, some of them ahead of it.

Columns and labels:
[1] = biological target: human α-thrombin (human) (UniProt P00734)
[2] = biological target: apo-transferrin (iron-unbound transferrin) (human) (UniProt P02787); assay: SPR
[3] = biological target: apo-transferrin (iron-unbound transferrin) (human) (UniProt P02787)
[4] = biological target: T1, apo-transferrin (iron-unbound transferrin) (human, UniProt P02787 20-698)
[5] = biological target: T1, apo-transferrin (iron-unbound …); assay: SPR
[6] = biological target: T1, apo-transferrin (iron-unbound …); assay: SPR; remark: listed apart in the source
[7] = biological target: T1, apo-transferrin (iron-unbound …); assay: SPR; remark: listed apart in the source

Molecule: apo-transferrin (iron-unbound transferrin) (from UniProt P02787 20-698) (natural protein)
enzymatic activity of thrombin on a chromogenic substrate, Tf at 0.2, 1 and 5 μM [1]: 1.8 fold

Molecule: FXII (natural protein)
Kd [2]: 40 nM
koff [2]: 0.0012 s⁻¹
kon [2]: 30000 M⁻¹ s⁻¹

Molecule: RIGKHSRTRYERNIEK [TH16]
Kd [7]: 97 nM
koff [7]: 0.0003 s⁻¹
kon [7]: 3100 M⁻¹ s⁻¹

Molecule: RRNHSCEPCQTLAVRSYR [FX18]
Kd [7]: 143 nM
koff [7]: 0.0004 s⁻¹
kon [7]: 2800 M⁻¹ s⁻¹

The next lines start with the values.

Kd [2]: 7.7 nM
stoichiometry N (Tf per thrombin) [3]: 1
Molecule: human α-thrombin (from UniProt P00734) (enzyme)

stoichiometry N [4]: 1 Tf per FXIIa
Kd [5]: 13.9 nM
koff [5]: 0.0025 s⁻¹
kon [5]: 180000 M⁻¹ s⁻¹
B1: human α-FXIIa (enzyme)
chain 1: IPPWEAPKEHKYKAEEHTVVLTVTGEPCHFPFQYHRQLYHKCTHKGRPGPQPWCATTPNFDQDQRWGYCLEPKKVKDHCSKHSPCQKGGTCVNMPSGPHCLCPQHLTGNHCQKEKCFEPQLLRFFHKNEIWYRTEQAAVARCQCKGPDAHCQRLASQACRTNPCLHGGRCLEVEGHRLCHCPVGYTGAFCDVDTKASCYDGRGLSYRGLARTTLSGAPCQPWASEATYRNVTAEQARNWGLGGHAFCRNPDNDIRPWCFVLNRDRLSWEYCDLAQCQTPTQAAPPTPVSPRLHVPLMPAQPAPPKPQPTTRTPPQSQTPGALPAKREQPPSLTRNGPLSCGQRLRKSLSSMTR
chain 2: VVGGLVALRGAHPYIAALYWGHSFCAGSLIAPCWVLTAAHCLQDRPAPEDLTVVLGQERRNHSCEPCQTLAVRSYRLHEAFSPVSYQHDLALLRLQEDADGSCALLSPYVQPVCLPSGAARPSETTLCQVAGWGHQFEGAEEYASFLQEAQVPFLSLERCSAPDVHGSSILPGMLCAGFLEGGTDACQGDSGGPLVCEDQAAERRLTLQGIISWGSGCGDRNKPGVYTDVAYYLAWIREHTVS

stoichiometry N [6]: 4 apo-Tf per fibrinogen
B2: fibrinogen (complex)
chain 1: ADSGEGDFLAEGGGVRGPRVVERHQSACKDSDWPFCSDEDWNYKCPSGCRMKGLIDEVNQDFTNRINKLKNSLFEYQKNNKDSHSLTTNIMEILRGDFSSANNRDNTYNRVSEDLRSRIEVLKRKVIEKVQHIQLLQKNVRAQLVDMKRLEVDIDIKIRSCRGSCSRALAREVDLKDYEDQQKQLEQVIAKDLLPSRDRQHLPLIKMKPVPDLVPGNFKSQLQKVPPEWKALTDMPQMRMELERPGGNEITRGGSTSYGTGSETESPRNPSSAGSWNSGSSGPGSTGNRNPGSSGTGGTATWKPGSSGPGSTGSWNSGSSGTGSTGNQNPGSPRPGSTGTWNPGSSERGSAGHWTSESSVSGSTGQWHSESGSFRPDSPGSGNARPNNPDWGTFEEVSGNVSPGTRREYHTEKLVTSKGDKELRTGKEKVTSGSTTTTRRSCSKTVTKTVIGPDGHKEVTKEVVTSEDGSDCPEAMDLGTLSGIGTLDGFRHRHPDEAAFFDTASTGKTFPGFFSPMLGEFVSETESRGSESGIFTNTKESSSHHPGIAEFPSRGKSSSYSKQFTSSTSYNRGDSTFESKSYKMADEAGSEADHEGTHSTKRGHAKSRPVRGIHTSPLGKPSLSP
chain 2: QGVNDNEEGFFSARGHRPLDKKREEAPSLRPAPPPISGGGYRARPAKAAATQKKVERKAPDAGGCLHADPDLGVLCPTGCQLQEALLQQERPIRNSVDELNNNVEAVSQTSSSSFQYMYLLKDLWQKRQKQVKDNENVVNEYSSELEKHQLYIDETVNSNIPTNLRVLRSILENLRSKIQKLESDVSAQMEYCRTPCTVSCNIPVVSGKECEEIIRKGGETSEMYLIQPDSSVKPYRVYCDMNTENGGWTVIQNRQDGSVDFGRKWDPYKQGFGNVATNTDGKNYCGLPGEYWLGNDKISQLTRMGPTELLIEMEDWKGDKVKAHYGGFTVQNEANKYQISVNKYRGTAGNALMDGASQLMGENRTMTIHNGMFFSTYDRDNDGWLTSDPRKQCSKEDGGGWWYNRCHAANPNGRYYWGGQYTWDMAKHGTDDGVVWMNWKGSWYSMRKMSMKIRPFFPQQ
chain 3: YVATRDNCCILDERFGSYCPTTCGIADFLSTYQTKVDKDLQSLEDILHQVENKTSEVKQLIKAIQLTYNPDESSKPNMIDAATLKSRKMLEEIMKYEASILTHDSSIRYLQEIYNSNNQKIVNLKEKVAQLEAQCQEPCKDTVQIHDITGKDCQDIANKGAKQSGLYFIKPLKANQQFLVYCEIDGSGNGWTVFQKRLDGSVDFKKNWIQYKEGFGHLSPTGTTEFWLGNEKIHLISTQSAIPYALRVELEDWNGRTSTADYAMFKVGPEADKYRLTYAYFAGGDAGDAFDGFDFGDDPSDKFFTSHNGMQFSTWDNDNDKFEGNCAEQDGSGWWMNKCHAGHLNGVYYQGGTYSKASTPNGYDNGIIWATWKTRWYSMKKTTMKIIPFNRLTIGEGQQHHLGGAKQAGDV
